B1: 7B11_huGS_HM1 (Fc fusion)
chain: EVQLVESGGGLVQPGGSLRLSCAASGGTFLTYGMGWFRQAPGKGLEFVAAINWSGSMTNYADSVKGRFTISRDNAKNTVYLQMNSLRAEDTAVYYCAAKTGAVAYIQKNEYDYWGQGTLVTVSSGGGGSGGGGSDKTHTCPPCPAPEAAGAPSVFLFPPKPKDTLMISRTPEVTCVVVDVSHEDPEVKFNWYVDGVEVHNAKTKPREEQYNSTYRVVSVLTVLHQDWLNGKEYKCAVSNKALPAPIEKTISKAKGQPREPQVYTLPPSRDELTKNQVSLTCLVKGFYPSDIAVEWESNGQPENNYKTTPPVLDSDGSFFLYSKLTVDKSRWQQGNVFSCSVMHEALHNHYTQKSLSLSP
notes: Humanized VHH-Fc antibody
B2: 7B11_huBSM_HM2 (Fc fusion)
chain: B1 chain with P14A, G44E, L45R, N84R, R87T, A88S
notes: Humanized VHH-Fc antibody
B3: 7B11_huBSM_HM1 (Fc fusion)
chain: B1 chain with P14A, E46V, N84R, R87T, A88S, L119Q
notes: Humanized VHH-Fc antibody
B4: 7B11_huBSM1 (Fc fusion)
chain: B1 chain with P14A, G44E, L45R, E46V, N84R, R87T, A88S, L119Q
notes: Humanized VHH-Fc antibody
B5: 7B11_huGS1 (Fc fusion)
chain: B1 chain with F37V, F47W
notes: Humanized VHH-Fc antibody
B6: 7B11_huGS_HM4 (Fc fusion)
chain: B1 chain with L119Q
notes: Humanized VHH-Fc antibody
B7: 7B11 (Fc fusion)
chain: B1 chain with P14A, G44E, L45R, F68S, K76R, N84I, R87K, A88P, L119Q
notes: also called 7B11 VHH-Fc antibody (260-7-B11 fused to human IgG1 Fc)

Numbering of substitutions follows the chain as printed.

T3 sequence (Q9NZQ7 19-290, one chain of several): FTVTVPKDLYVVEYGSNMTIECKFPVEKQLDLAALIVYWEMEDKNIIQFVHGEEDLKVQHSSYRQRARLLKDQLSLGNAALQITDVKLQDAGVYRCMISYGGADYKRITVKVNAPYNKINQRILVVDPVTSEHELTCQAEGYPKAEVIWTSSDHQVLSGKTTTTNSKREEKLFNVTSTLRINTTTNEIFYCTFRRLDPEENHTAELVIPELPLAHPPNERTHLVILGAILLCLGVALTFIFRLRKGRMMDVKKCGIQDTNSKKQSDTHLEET

The target in the first assay is T1, human PD-L1 protein (ACRO, PD1-H5258) (human, UniProt Q9NZQ7 19-238).
T1 construct: Bought protein; also called Human PDL1-Fc
T1 sequence (Q9NZQ7 19-238): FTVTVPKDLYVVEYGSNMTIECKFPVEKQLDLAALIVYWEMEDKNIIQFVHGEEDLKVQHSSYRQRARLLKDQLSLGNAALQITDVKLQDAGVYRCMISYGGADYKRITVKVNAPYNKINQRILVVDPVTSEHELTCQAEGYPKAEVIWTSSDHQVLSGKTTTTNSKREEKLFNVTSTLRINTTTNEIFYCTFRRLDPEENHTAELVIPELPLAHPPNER
Nature of the assay: Carterra HC30M chip, antibody captured via anti-DYKDDDDK, PD-L1 as analyte. Here is the method:
(§1) The anti-[…] antibody was bound to the HC30M chip via amino coupling, then […] of humanized PD-L1 single-domain antibody was captured. After the baseline was stabilized, gradient diluted human PD-L1 protein (ACRO, PD1-H5258) and monkey PD-L1 protein (Kactus Biosystems, PDL-CM210) (starting from 100 nM, gradient dilution) were flowed over the chip from low to high concentrations, with a binding time of 8 minutes and a dissociation time of 20 minutes. Kinetic constants were obtained by fitting with Carteria software.
On to B1, for which binding was put at a Kd of 0.0294 nM.
As to B2, binding was characterised by a dissociation constant (Kd) of 0.0362 nM.
Still for that read-out and setting: to B3 belongs 0.0382 nM; to B4, 0.0372 nM; to B5, 0.0815 nM.
As to B6, the affinity, expressed as Kd, was 0.035 nM.

A further assay deals with T2, monkey PD-L1 protein (Kactus Biosystems, PDL-CM210) (monkey).
T2 construct: Bought protein; also called Monkey PDL1-Fc
Described as above. Here is the method:
as §1
As for B1, the Kd – broadly, the constant that tells how readily two partners part at equilibrium – was 0.0252 nM.
In turn, B2 showed a dissociation constant Kd of 0.0307 nM.
The same measure, in the same setting: next, B3: 0.0347 nM.
The same measure, in the same setting: next, B4: 0.0294 nM; B5: 0.0588 nM.
Molecule B6 registered a Kd of 0.0326 nM.

Another assay concerns the target T3, human PD-L1 on GS-C2 cells (cells overexpressing human PD-L1, GenScript, M00613) (human, UniProt Q9NZQ7 19-290).
T3 construct: whole, on cells; also called human PD-L1 cells
The assay can be described thus: flow cytometry on GS-C2 cells. The source says: (§2) After washing with PBS, a flow cytometer was used for detection.
For orientation: A flow cytometer gives signals particle by particle.
As to B7, the EC50 (commonly the concentration needed to bring the measured effect to its halfway point) is 0.642 nM.
B6 had an EC50 of 0.729 nM.

A further assay deals with T3, human PD-L1 on GS-C2 cells (cells …). The assay can be described thus: cell-based or functional assay.
For B7, the “EC50 (nM), blocking of T cell PD-1/PD-L1 signaling pathway (GS-C2 cells with Jurket-NFAT-PD1 cells, luciferase)” value was 2.11 nM.
Still for that read-out and setting: next, B6: 1.97 nM.

The target is the same in another assay. Nature of the assay: flow cytometry competition on GS-C2 cells, competitor human PD-1-mFc 1.25 ug/mL.
From the text: as §2
As for B7, the IC50 (usually the concentration at which inhibition is half-maximal) was determined as 0.221 nM.
Same read-out and setting: next, B6: 0.24 nM.

For another assay, the target named is T4, monkey PD-L1 (Cyno-PD-L1) on cells (monkey (cyno)).
T4 construct: whole, on cells; also called CHO-cynoPDL1; 293F-cyno PD-L1 cells
Nature of the assay: flow cytometry on 293F-cyno PD-L1 cells.
From the text: as §2
B7 had an EC50 of 1.58 nM.
Still for that read-out and setting: next, B6: 2 nM.

The record behind these values is patent publication US20260201058A1 (SICHUAN HUIYU PHARMACEUTICAL, published 2026).
